Data reported in US20030175276A1.

Biological target: VEGF:sFlk-1 complex (human; mouse) (UniProt P15692)
Assay: capture ELISA: biotinylated sFlk-1 complexed with VEGF titrated onto wells coated with irrelevant IgM, concentration giving 50% maximal binding; extrapolated value

Sequence of VEGF:sFlk-1 complex (human; mouse) (P15692 other isoform, or with tags, fused parts or gaps limits assumed, chain 1 of 2): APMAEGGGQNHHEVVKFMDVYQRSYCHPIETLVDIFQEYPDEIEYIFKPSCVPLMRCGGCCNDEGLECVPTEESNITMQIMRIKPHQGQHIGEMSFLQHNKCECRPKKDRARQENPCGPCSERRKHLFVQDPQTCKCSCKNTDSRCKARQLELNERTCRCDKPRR
Sequence of VEGF:sFlk-1 complex (human; mouse) (P35918 20-762 limits assumed, chain 2 of 2, further chain): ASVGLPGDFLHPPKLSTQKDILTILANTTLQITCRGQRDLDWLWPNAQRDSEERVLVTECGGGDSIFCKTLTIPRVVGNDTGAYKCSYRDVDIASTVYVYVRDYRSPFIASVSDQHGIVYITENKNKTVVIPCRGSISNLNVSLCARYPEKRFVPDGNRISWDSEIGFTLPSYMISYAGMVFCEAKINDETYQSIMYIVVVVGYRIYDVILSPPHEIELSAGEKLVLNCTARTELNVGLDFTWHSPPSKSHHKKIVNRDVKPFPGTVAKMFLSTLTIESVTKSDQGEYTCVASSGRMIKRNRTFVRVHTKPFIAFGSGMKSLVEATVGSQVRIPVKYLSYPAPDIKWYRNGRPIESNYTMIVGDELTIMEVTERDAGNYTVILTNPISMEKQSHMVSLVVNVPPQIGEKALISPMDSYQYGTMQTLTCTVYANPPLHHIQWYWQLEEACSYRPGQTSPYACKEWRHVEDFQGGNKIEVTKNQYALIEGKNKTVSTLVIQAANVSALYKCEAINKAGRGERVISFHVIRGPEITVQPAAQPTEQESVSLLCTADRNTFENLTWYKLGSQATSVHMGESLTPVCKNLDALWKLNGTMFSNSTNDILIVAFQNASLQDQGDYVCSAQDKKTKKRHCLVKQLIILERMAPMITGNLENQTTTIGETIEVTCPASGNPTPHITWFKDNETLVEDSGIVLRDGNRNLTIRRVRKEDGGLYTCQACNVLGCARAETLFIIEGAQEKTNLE

- EC50: 600 nM
Substance: irrelevant IgM (negative control of Table 2) (antibody)
